Results taken from the DeepSol protein solubility set.

Assay: soluble on expression in E. coli; label from the status in PepcDB or PDB records

Soluble on expression in E. coli, not soluble:
MGSDKIHHHHHHMTLGTKLSVDQEYLKSFSEKHQEPAWLKNLRLQALEQAEDLPMPKPDKTKITNWNFTNFAKHTVDNEPLSSLEDLTDEVKALIDIENEDKTLYVQRDQTPAHLSLSQELKDKGVIFTDILTAAREHSDLVEKYFMKDGVKVDEHKLTALHAALVNGGAFLYVPKNVQVETPVQAVYVHESNDTALFNHVLIVAEDHSSVTYVENYISTVNPKDAVFNIISEVITGDNASVTYGAVDNLSSGVTTYVNRRGAARGRDSKIEWALGLMNDGDTISENTTNLYGDGTYGDTKTVVVGRGEQTENFTTQIIHFGKASEGYILKHGVMKDSASSIFNGIGKIEHGASKANAEQESRVLMLSEKARGDANPILLIDEDDVTAGHAASVGRVDPIQLYYLMSRGIPKEEAERLVIYGFLAPVVNELPIEGVKKQLVSVIERKVK, MGSDKIHHHHHHMTLSFVTRWRDELPETYTALSPTPLNNARLIWHNTELANTLSIPSSLFKNGAGVWGGEALLPGMSPLAQVYSGHQFGVWAGQLGDGRGILLGEQLLADGTTMDWHLKGAGLTPYSRMGDGRAVLRSTIRESLASEAMHYLGIPTTRALSIVTSDSPVYRETAEPGAMLMRVAPSHLRFGHFEHFYYRRESEKVRQLADFAIRHYWSHLADDEDKYRLWFSDVVARTASLIAQWQTVGFAHGVMNTDNMSLLGLTLDYGPFGFLDDYEPGFICNHSDHQGRYSFDNQPAVALWNLQRLAQTLSPFVAVDALNEALDSYQQVLLTHYGERMRQKLGFMTEQKEDNALLNELFSLMARERSDYTRTFRMLSLTEQHSAASPLRDEFIDRAAFDDWFARYRGRLQQDEVSDSERQQLMQSVNPALVLRNWLAQRAIEAAEKGDMTELHRLHEALRNPFSDRDDDYVSRPPDWGKRLEVSCSS, MGSDKIHHHHHHMTLYLGIDTSAYTTSLAIVDEQAELVYENRKILTVPEGERGLAQSAALFQHVQNLPQLVTAVPPQYWEKVSALGVSTAPRPIQESYMPVFLPGYGVAAAMASARCIPLVETSHQEGHLAAGIASSKLKEPHFLAIHISGGTTELLEVHHTQPGKLDIQLLGGTTDLHAGQFVDRVGVRLGLPFPAGKSLEELARQADPGAAAWLPSAVRGFEVSFSGVETAAQRLIDQGKNPADVARAVEGCIVRTLGKLLQAGMEKTTLSEILIVGGVASNQFIRQELKKRLARHANLHWAEPDWSRDNAIGVALLALEKVRGCII, MGSDKIHHHHHHMTNKNYLLYVDNEKYVLRLPGVMTSNLISRHYEMNNSILMSQAEFNVETIYFNADNGIKITKFLEKGINFNHNNIHQYEYLFLISKELYKLHHSDIQFNNEFNVFETFQQYFDLLKDKNGFFCFNKNIPLIYEFFIKISKNNSFYNIKCPCHNDLVPENILLKNNKLFFIDWEYSGMNAPLFDVAAFFLESRIPKEKQKYFLAHYDHHLDFEKSRMEILFHQFTQDVLWFLWTLIKEENNETFENYASIRINRAYELMKDLVKNEVI, MGSDKIHHHHHHMTNTIMEQEARTAPQKIAGQLAANADLMQQLGEKLRAFDPRFVMIVGRGSSDHAGVFAKYLFEIEVGVPTFAAAPSVASVYGKTLKLEGGLVIVISQSGRSPDILAQARMAKNAGAFCVALVNDETAPIKDIVDVVVPLRAGEEKAVAATKSYLATLSAILQLASAWTQSESLAAAVSSLPQALQTAVVAEPQLTPESVENVKNLVVLGRGLGYAVSKEIALKLKEVCSIHAEAFSSAEFLHGPVTLVEKKLTIVDVCIGDESYASHIEQIENVSQRGADLVHLNQTSTDIHPRVAPLALLQRFYIDVAAVAIARGIDPDQPAGLKKVTQTL, MGSDKIHHHHHHMTPAAVGQLVRTLEDWLGFPLFHRQTNGKNRLVATELAESVLPDIRAGFDKLTLALEKLKQDSLSGVLNIAVSPAFAEKWLLPRIDHFQKQYPDIDIRLDINLKTVDFLEQKVDVGVRYGQGQWQGLEAVKLMDEEVYPVCSPAFLNEHSFLLTPNDLKNITLIHDLSMEKHQQFPGWQSWLKSVGLNDINISRGMQINSSSAVLQAAMEGHGVALARSVMVQKDIQTGRLIRLFPQINFSSPFSYYLVYRPQYANLPKVKICLDWFFEEIHRI
